Laboratory results from paper PMC6499725.

Target: propionyl-CoA synthase (PCS) from Erythrobacter sp. NAP1 (Erythrobacter sp. NAP1)
Experiment: crystal structure

For “propionyl-CoA synthase (PCS) from Erythrobacter sp. NAP1 (enzyme)”, the stoichiometry N was 2.
